Reference: US20240343811A1 (SHANDONG SIMCERE BIOPHARMACUTICAL, published 2024)
Like-named read-outs stand apart in the source and are kept apart here.

T1: human CD16b (NA2), full length, on FlpinCHO cells (human, UniProt O75015 17-200)
T1 construct: also called FlpinCHO-human CD16b (NA2)
T1 chain: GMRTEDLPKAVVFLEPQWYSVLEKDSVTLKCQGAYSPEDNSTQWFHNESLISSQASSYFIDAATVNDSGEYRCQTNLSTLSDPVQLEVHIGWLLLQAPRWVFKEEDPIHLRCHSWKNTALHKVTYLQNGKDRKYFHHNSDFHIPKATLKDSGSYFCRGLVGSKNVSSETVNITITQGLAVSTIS

T2: human CD16b (NA1), full length, on FlpinCHO cells (human, UniProt O75015 17-200)
T2 construct: also called FlpinCHO-human CD16b (NA1)
T2 chain: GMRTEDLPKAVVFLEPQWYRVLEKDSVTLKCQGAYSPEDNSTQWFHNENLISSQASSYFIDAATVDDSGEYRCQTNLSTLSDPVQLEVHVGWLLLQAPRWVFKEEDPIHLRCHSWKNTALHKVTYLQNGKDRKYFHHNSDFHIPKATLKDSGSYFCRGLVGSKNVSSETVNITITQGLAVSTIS


Columns and labels:
[1] = target: T3, human CD16a (158V), full length, on cells (human, UniProt P08637 17-254); experiment: cell-based or functional assay
T3 sequence (P08637 17-254 F176V limits assumed): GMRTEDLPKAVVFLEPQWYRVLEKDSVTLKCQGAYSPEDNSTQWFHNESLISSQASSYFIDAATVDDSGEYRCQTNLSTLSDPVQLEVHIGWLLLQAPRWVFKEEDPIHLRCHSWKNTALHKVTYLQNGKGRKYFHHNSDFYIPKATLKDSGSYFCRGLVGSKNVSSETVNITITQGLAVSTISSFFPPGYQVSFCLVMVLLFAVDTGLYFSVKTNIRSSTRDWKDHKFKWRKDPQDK

[2] = target: T1, human CD16b (NA2), full length, on …; experiment: FACS on FlpinCHO cells
Method: (§1) The required cells were scale-up cultured in a T-75 cell culture flask to the logarithmic growth phase. The medium was aspirated, and the cells were washed twice with a PBS buffer and then digested with trypsin. After the digestion was terminated, the cells were washed twice with the PBS buffer. The cells were counted, and then the cell pellet was resuspended with a [PBS+2% (w/w) BSA] blocking solution to 2×10⁶ cells/ml, and added to a 96-well FACS reaction plate at 50 μl/well. […] 50 μl/well of the antibody to be detected was added at different concentrations, and incubated on ice for 1 hour. […] The mixture was centrifuged and washed 5 times with PBS, and FACS (FACS Canto II, purchased from BD Company) was used for detection and result analysis. Data analysis was performed by software (CellQuest) to obtain the mean fluorescence intensity (MFI) of the cells. Then, software (GraphPad Prism8) was used for analysis, data fitting and EC50 value calculation.
(§2) The binding of an antibody to be detected to FlpinCHO-human CD16b cells was detected according to the method of Example 3.1.

[3] = target: T2, human CD16b (NA1), full length, on …; experiment: FACS on FlpinCHO cells
Method: as §1, §2

[4] = target: T4, human CD16a (158F), full length, on FlpinCHO cells (human, UniProt P08637 17-254); experiment: FACS on FlpinCHO cells
T4 sequence (P08637 17-254 limits assumed): as the sequence (P08637 17-254 F176V limits assumed) above, with V160F counted along it
Method: as §1
(§3) The binding of a humanized antibody to FlpinCHO-human CD16a cells was detected according to the method of Example 3.1.

[5] = target: T3, human CD16a (158V), full length, on …; experiment: FACS on FlpinCHO cells
Method: as §1, §3

Human CD16a (158F)-his = target: T5, Human CD16a (158F)-his (human); experiment: SPR (Biacore), antibody captured on Protein A
T5 construct: entry holds ECD, AVI tag, linker and His tag
T5 sequence (chain, as listed by the source limits assumed): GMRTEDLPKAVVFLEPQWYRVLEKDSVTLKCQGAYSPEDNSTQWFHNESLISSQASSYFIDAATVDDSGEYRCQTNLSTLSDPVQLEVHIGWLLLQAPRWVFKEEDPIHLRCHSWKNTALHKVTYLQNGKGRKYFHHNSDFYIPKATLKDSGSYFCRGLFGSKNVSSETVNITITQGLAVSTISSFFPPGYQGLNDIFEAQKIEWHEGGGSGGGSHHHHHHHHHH
Method: (§4) A sample buffer and a running buffer were HBS-EP+ (10 mM HEPES, 150 mM NaCl, 3 mM EDTA and 0.05% surfactant P20) (GE Healthcare; BR-1006-69). The flow-through cell was set to 25° C. The sample block was set to 16° C. Both were pretreated with the running buffer. In each cycle, an antibody to be detected was first captured with a Protein A chip, and then a single concentration of CD16 antigen protein was injected. The binding and dissociation processes of the antibody and the antigen protein were recorded, and finally Glycine pH 1.5 (GE Healthcare; BR-1003-54) was used to complete chip regeneration. Binding was measured by injecting different concentrations of recombinant human CD16-ECD his proteins in a solution for 240 s with a flow rate of 30 μL/min, wherein a total of 5 concentrations were prepared by using 200 nM as a starting concentration (see the detailed results for the actual concentration in the test) and performing a 1:1 dilution. The dissociation phase was monitored for up to 600 s and was triggered by switching from a sample solution to a running buffer. The surface was regenerated by washing with a 10 mM glycine solution (pH 1.5) for 30 s at a flow rate of 30 μL/min. Bulk refractive index difference was corrected by subtracting the response obtained from the goat anti-human Fc surface. Blank injection was also subtracted (=double reference). For calculation of apparent KD and other kinetic parameters, Langmuir 1:1 model was used.

[6] = target: T4, human CD16a (158F), full length, on …; experiment: FACS, biotinylated antibody
Method: as §1, with “The” for “The required cells were scale-up cultured in a T-75 cell culture flask to the logarithmic growth phase. The”
(§5) An antibody to be detected was labeled in advance according to the instructions of a biotin labeling kit (EZ-Link™ NHS-PEG4 Biotinylation Kit, purchased from Thermofisher Scientific, catalog number: 21455). […] Detection was performed according to the method of Example 3.1, wherein the biotinylated antibody was detected with fluorescein APC-labeled Streptavidin (High Concentration) (purchased from Biolegend, catalog number: 405243).

[7] = target: T3, human CD16a (158V), full length, on …; experiment: FACS, biotinylated antibody
Method: as §1, with “The” for “The required cells were scale-up cultured in a T-75 cell culture flask to the logarithmic growth phase. The”
as §5

[8] = target: T4, human CD16a (158F), full length, on …; experiment: FACS on FlpinCHO cells; remark: listed apart in the source
Method: as §1

[9] = target: T3, human CD16a (158V), full length, on …; experiment: FACS on FlpinCHO cells; remark: listed apart in the source
Method: as §1

[10] = target: T4, human CD16a (158F), full length, on …; experiment: FACS, biotinylated antibody, +10 mg/mL human immunoglobulin
Method: as §1, with “The” for “The required cells were scale-up cultured in a T-75 cell culture flask to the logarithmic growth phase. The”
as §5

[11] = target: T3, human CD16a (158V), full length, on …; experiment: as above
Method: as §1, with “The” for “The required cells were scale-up cultured in a T-75 cell culture flask to the logarithmic growth phase. The”
as §5

[12] = target: T1, human CD16b (NA2), full length, on …; experiment: FACS on FlpinCHO cells
Method: as §1, §2

[13] = target: T2, human CD16b (NA1), full length, on …; experiment: FACS on FlpinCHO cells
Method: as §1, §2

[14] = target: T6, CD16 on primary human NK cells (human, UniProt P08637 17-254); experiment: FACS on human NK cells
T6 construct: whole, on cells; also called resting NK cells
T6 sequence (P08637 17-254): as the sequence (P08637 17-254 F176V limits assumed) above, with V160F counted along it
Method: as §1
The binding of an antibody to be detected to freshly prepared human NK cells (Milestone Biotechnologies, catalog number: PB56-N-Custom) was detected according to the method of Example 3.1.

[15] = target: T3, human CD16a (158V), full length, on …; experiment: cell-based or functional assay; remark: listed apart in the source
Human CD16a (158V)-his = target: T7, Human CD16a (158V)-his (human); experiment: SPR (Biacore), antibody captured on Protein A
T7 construct: entry holds ECD, AVI tag, linker and His tag
T7 sequence (chain, as listed by the source limits assumed): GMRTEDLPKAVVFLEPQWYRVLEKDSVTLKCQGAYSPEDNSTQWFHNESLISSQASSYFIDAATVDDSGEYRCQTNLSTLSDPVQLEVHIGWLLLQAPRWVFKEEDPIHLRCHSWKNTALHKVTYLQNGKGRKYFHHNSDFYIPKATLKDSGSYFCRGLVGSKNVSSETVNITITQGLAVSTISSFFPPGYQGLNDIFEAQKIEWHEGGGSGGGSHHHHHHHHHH
Method: as §4

Kd (Human CD16a (158F)-his) [nM] | koff (Human CD16a (158F)-his) [s⁻¹] | kon (Human CD16a (158F)-his) [M⁻¹ s⁻¹] | EC50 [6] [nM] | Maximum mean fluorescence intensity [6] | EC50 [7] [nM] | Maximum mean fluorescence intensity [7] | EC50 [8] [nM] | Maximum mean fluorescence intensity [8] | EC50 [9] [nM] | Maximum mean fluorescence intensity [9] | EC50 [10] [nM] | Maximum mean fluorescence intensity [10] | EC50 [11] [nM] | Maximum mean fluorescence intensity [11] | Maximum mean fluorescence intensity [12] | binding result [12] | EC50 [13] [nM] | Maximum mean fluorescence intensity [13] | EC50 [14] [nM] | Binder | further results
28.7 | 0.00129 | 44800 | – | – | – | – | – | – | – | – | – | – | – | – | – | – | – | – | – | VHH06-03 humanized VHH-Fc antibody (Fc fusion) EVQLVESGGGVVQPGGSLRLSCAASGSTWTTYAVRWYRQAPGKQREWVAFISVDGSTNYADSVKGRFTISRDNSKNTVYLQMNSLRAEDTADYICRVGGQYWGQGTMVTVSSEPKSSDKTHTCPPCPAPEEFGGPSVFLFPPKPKDTLMISRTPEVTCVVVAVSHEDPEVKFNWYVDGVEVHNAKTKPREEQYNSTYRVVSVLTVLHQDWLNGKEYKCKVSNKALPAPIEKTISKAKGQPREPQVYTLPPSREEMTKNQVSLTCLVKGFYPSDIAVEWESNGQPENNYKTTPPVLDSDGSFFLYSKLTVDKSRWQQGNVFSCSVMHEALHNHYTQKSLSLSPGK | EC50, activation activity for Jurkat cell [1]: 0.02 nM; Maximum fluorescence value [1]: 171000; Maximum mean fluorescence intensity [2]: 174; binding result [2]: no binding (tested: 100 nM); EC50 [3]: 0.35 nM; Maximum mean fluorescence intensity [3]: 56900; EC50 [4]: 0.47 nM; Maximum mean fluorescence intensity [4]: 9140; EC50 [5]: 0.49 nM; Maximum mean fluorescence intensity [5]: 8390
39.9 | 0.00247 | 61800 | 0.31 | 4690 | 0.42 | 6980 | 0.44 | 5620 | 0.63 | 6480 | 1.2 | 6040 | 1.39 | 9200 | 140 | no binding (tested: 100 nM) | 0.34 | 51400 | 0.45 | VHH10 VHH-Fc antibody (Fc fusion) QVQLVESGGGLVQAGGSLRLSCVGSSSTLTTYAVRWYRQAPGKQREWVAFISVDGSTNYPDSVKGRFIVSRDNAKNTVYLQMNSLKPEDTADYICRAGGQYWGQGTQVTVSSEPKSSDKTHTCPPCPAPEFEGGPSVFLFPPKPKDTLMISRTPEVTCVVVAVSHEDPEVKFNWYVDGVEVHNAKTKPREEQYNSTYRVVSVLTVLHQDWLNGKEYKCKVSNKALPAPIEKTISKAKGQPREPQVYTLPPSREEMTKNQVSLTCLVKGFYPSDIAVEWESNGQPENNYKTTPPVLDSDGSFFLYSKLTVDKSRWQQGNVFSCSVMHEALHNHYTQKSLSLSPGK | Maximum mean fluorescence intensity [14]: 2450; EC50, activation activity for Jurkat cell [15]: 0.02 nM; Maximum fluorescence value [15]: 157000; Kd (Human CD16a (158V)-his): 13.6 nM; koff (Human CD16a (158V)-his): 0.00146 s⁻¹; kon (Human CD16a (158V)-his): 107000 M⁻¹ s⁻¹
42.8 | 0.00273 | 63800 | 0.4 | 5240 | 0.49 | 7260 | 0.44 | 5600 | 0.69 | 6490 | 1.41 | 6570 | 1.41 | 9030 | 178 | no binding (tested: 100 nM) | 0.44 | 52100 | 0.74 | VHH15 VHH-Fc antibody (Fc fusion) EVQLVESGGGLVQAGGSLRLSCVASTSTLTTYAVRWYRQAPGKQREWVAFISVDGNTNYPDSVKGRFIVSRDNAKNTVYLQMNSLKPEDTADYICRAGGQYWGQGTQVTVSSEPKSSDKTHTCPPCPAPEFEGGPSVFLFPPKPKDTLMISRTPEVTCVVVAVSHEDPEVKFNWYVDGVEVHNAKTKPREEQYNSTYRVVSVLTVLHQDWLNGKEYKCKVSNKALPAPIEKTISKAKGQPREPQVYTLPPSREEMTKNQVSLTCLVKGFYPSDIAVEWESNGQPENNYKTTPPVLDSDGSFFLYSKLTVDKSRWQQGNVFSCSVMHEALHNHYTQKSLSLSPGK | Maximum mean fluorescence intensity [14]: 2400; EC50, activation activity for Jurkat cell [15]: 0.02 nM; Maximum fluorescence value [15]: 167000; Kd (Human CD16a (158V)-his): 14.1 nM; koff (Human CD16a (158V)-his): 0.0016 s⁻¹; kon (Human CD16a (158V)-his): 114000 M⁻¹ s⁻¹
